According to US20070292409A1 (University of California, published 2007):

Assays:
[1] = molecular target: G protein-q/11 α-subunit (Gαq/11), endogenous protein of 3T3-L1 adipocytes (UniProt P21279)
[2] = molecular target: T1, insulin receptor, endogenous protein of 3T3-L1 adipocytes (UniProt P15208 28-1372, limits assumed); experiment: co-immunoprecipitation with anti-GRK2 antibody from 3T3-L1 adipocyte lysates
T1 construct: The mature receptor is made of alpha and beta chains; also called IR
T1 sequence (P15208 28-1372 limits assumed): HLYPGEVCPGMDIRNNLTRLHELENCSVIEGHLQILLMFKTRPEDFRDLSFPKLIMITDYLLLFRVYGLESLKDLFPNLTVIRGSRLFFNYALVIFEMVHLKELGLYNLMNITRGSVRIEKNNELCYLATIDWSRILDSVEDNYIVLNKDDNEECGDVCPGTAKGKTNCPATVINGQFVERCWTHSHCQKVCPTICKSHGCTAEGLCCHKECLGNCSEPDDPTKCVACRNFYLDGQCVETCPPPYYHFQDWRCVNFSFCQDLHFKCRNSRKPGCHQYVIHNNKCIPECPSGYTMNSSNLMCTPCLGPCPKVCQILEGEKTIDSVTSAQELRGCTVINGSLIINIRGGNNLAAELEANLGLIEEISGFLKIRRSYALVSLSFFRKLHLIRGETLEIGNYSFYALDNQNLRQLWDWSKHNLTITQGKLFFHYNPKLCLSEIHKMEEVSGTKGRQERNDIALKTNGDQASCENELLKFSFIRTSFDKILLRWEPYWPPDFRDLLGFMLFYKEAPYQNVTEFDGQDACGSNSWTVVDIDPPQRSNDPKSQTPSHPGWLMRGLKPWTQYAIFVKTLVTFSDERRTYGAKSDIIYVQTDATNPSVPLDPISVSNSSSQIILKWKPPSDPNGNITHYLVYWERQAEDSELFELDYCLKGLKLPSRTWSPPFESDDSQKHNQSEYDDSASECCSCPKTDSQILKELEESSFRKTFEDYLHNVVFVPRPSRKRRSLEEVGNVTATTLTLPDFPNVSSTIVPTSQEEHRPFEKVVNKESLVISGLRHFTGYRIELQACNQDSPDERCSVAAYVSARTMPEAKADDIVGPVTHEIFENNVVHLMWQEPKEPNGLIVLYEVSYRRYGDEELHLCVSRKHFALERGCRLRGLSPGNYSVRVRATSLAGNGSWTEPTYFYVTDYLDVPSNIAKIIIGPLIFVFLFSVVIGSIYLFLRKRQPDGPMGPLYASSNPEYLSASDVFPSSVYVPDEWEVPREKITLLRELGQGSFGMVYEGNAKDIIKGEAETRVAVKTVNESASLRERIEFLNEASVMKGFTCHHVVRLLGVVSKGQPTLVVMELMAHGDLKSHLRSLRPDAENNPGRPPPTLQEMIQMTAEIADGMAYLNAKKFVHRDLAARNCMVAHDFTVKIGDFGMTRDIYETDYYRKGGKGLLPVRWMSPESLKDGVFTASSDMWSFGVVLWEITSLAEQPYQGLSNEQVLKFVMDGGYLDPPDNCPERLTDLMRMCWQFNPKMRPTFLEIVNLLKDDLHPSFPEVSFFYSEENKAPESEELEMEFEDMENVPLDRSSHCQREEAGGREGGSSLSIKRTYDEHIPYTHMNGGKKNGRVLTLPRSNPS

Sequence of G protein-q/11 α-subunit (Gαq/11), endogenous protein of 3T3-L1 adipocytes (P21279 whole entry): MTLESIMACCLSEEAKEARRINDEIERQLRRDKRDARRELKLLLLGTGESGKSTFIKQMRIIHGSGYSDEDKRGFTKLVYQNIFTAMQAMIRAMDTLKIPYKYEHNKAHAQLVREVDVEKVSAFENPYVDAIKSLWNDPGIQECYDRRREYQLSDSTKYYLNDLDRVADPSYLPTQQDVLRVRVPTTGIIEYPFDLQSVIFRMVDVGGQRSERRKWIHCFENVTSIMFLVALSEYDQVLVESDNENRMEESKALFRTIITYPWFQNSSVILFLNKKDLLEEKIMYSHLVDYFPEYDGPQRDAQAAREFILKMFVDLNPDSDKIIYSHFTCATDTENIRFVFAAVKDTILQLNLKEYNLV

For “deletion mutant of GRK2 lacking the RGS domain”, which “insulin-induced GLUT4 translocation after nuclear microinjection of the expression vector” value [1] is on record?
Its value is “overexpression of delta-GRK2 had no effect”.

How did the “Gαq/11 tyrosine phosphorylation stimulated by ET-1 or insulin (PY20 immunoprecipitation, anti-Gαq/11 blot)” value [1] turn out when “kinase deficient (K220R) GRK2, overexpressed (adenovirus or plasmid vector)” was run?
The value was “both WT- and KD-GRK2 overexpression inhibited Gαq/11 tyrosine phosphorylation stimulated by ET-1 or insulin”.

What about the “insulin-induced GLUT4 translocation after nuclear microinjection of the expression vector” value [1] of the same molecule?
The value was “overexpression of either WT- or KD-GRK2 by nuclear microinjection inhibited insulin-induced GLUT4 translocation”.

What about the “insulin-induced Gαq/11 tyrosine phosphorylation (PY20 immunoprecipitation, anti-Gαq/11 blot)” value [1] of the same molecule?
Its value is “overexpression of either WT- or KD-GRK2 inhibited insulin-induced Gαq/11 tyrosine phosphorylation”.

Which results are given for “wild type GRK2, overexpressed (adenovirus or plasmid vector)”?
Gαq/11 tyrosine phosphorylation stimulated by ET-1 or insulin (PY20 immunoprecipitation, anti-Gαq/11 blot) [1]: both WT- and KD-GRK2 overexpression inhibited Gαq/11 tyrosine phosphorylation stimulated by ET-1 or insulin; insulin-induced GLUT4 translocation after nuclear microinjection of the expression vector [1]: overexpression of either WT- or KD-GRK2 by nuclear microinjection inhibited insulin-induced GLUT4 translocation; insulin-induced Gαq/11 tyrosine phosphorylation (PY20 immunoprecipitation, anti-Gαq/11 blot) [1]: overexpression of either WT- or KD-GRK2 inhibited insulin-induced Gαq/11 tyrosine phosphorylation

B1: G protein-coupled receptor kinase 2 (GRK2), endogenous protein of 3T3-L1 adipocytes (enzyme, UniProt Q99MK8 1-689, looked up)
chain: MADLEAVLADVSYLMAMEKSKATPAARASKKILLPEPSIRSVMQKYLEDRGEVTFEKIFSQKLGYLLFRDFCLNHLEEAKPLVEFYEEIKKYEKLETEEERVVRSREIFDSYIMKELLACSHPFSKNATEHVQGHLVKKQVPPDLFQPYIEEICQNLRGDVFQKFIESDKFTRFCQWKNVELNIHLTMNDFSVHRIIGRGGFGEVYGCRKADTGKMYAMKCLDKKRIKMKQGETLALNERIMLSLVSTGDCPFIVCMSYAFHTPDKLSFILDLMNGGDLHYHLSQHGVFSEADMRFYAAEIILGLEHMHNRFVVYRDLKPANILLDEHGHVRISDLGLACDFSKKRPHASVGTHGYMAPEVLQKGVAYDSSADWFSLGCMLFKLLRGHSPFRQHKTKDKHEIDRMTLTMAVELPDSFSPELRSLLEGLLQRDVNRRLGCLGRGAQEVKESPFFRSLDWQMVFLQKYPPPLIPPRGEVNAADAFDIGSFDEEDTKGIKLLDSDQELYRNFPLTISERWQQEVAETVFDTINAETDRLEARKKAKNKQLGHEEDYALGKDCIVHGYMSKMGNPFLTQWQRRYFYLFPNRLEWRGEGEAPQSLLTMEEIQSVEETQIKERKCLLLKIRGGKQFVLQCDSDPELVQWKKELRDAYREAQQLVQRVPKMKNKPRSPVVELSKVPLIQRGSANGL
notes: Precipitated from cell lysate with a rabbit polyclonal anti-GRK2 antibody; also called endogenous GRK2
Does B1 bind [2]?
Result: no binding
